Measurements from patent US20200024322A1 (Eli Lilly, published 2020).
Numbered stars: 1 amine (or outer) side, 2 acyl side, 3 side chain; on linkers, the order of the positions; unused ones are H or OH. Square brackets hold non-standard residues; d marks the D form. Side chains are listed from the residue outwards. Ends that are not written are not given here. * marks the point of attachment. C20 diacid = O=C(O)CCCCCCCCCCCCCCCCCCC(=O)*; γGlu = O=C(O)[C@H](CCC(=O)[*:2])N[*:1]; AEEA = NCCOCCOCC(=O)O; Aib = CC(C)(N)C(=O)O

T1: human GIP receptor (human, UniProt P48546 22-466)
T1 construct: whole, on cells; Used as crude membranes of stably transfected CHO cells; also called hGIPR
T1 sequence (looked up): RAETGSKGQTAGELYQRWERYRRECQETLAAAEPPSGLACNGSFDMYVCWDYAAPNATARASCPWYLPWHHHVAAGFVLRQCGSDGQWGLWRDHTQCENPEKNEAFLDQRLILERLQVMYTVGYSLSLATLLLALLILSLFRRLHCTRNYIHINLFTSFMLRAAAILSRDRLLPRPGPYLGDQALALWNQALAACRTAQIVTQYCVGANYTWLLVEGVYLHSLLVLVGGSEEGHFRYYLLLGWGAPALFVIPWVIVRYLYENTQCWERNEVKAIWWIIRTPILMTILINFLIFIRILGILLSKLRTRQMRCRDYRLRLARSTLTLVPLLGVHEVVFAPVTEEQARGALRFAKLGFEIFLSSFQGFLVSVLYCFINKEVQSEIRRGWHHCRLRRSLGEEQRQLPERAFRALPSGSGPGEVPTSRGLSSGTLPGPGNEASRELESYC


What was measured:
human GLP-1 receptor = biological target: T2, human GLP-1 receptor (human, UniProt P43220 24-463); assay: SPA, [125I]-GLP-1 displacement, hGLP-1R membranes
T2 construct: whole, on cells; Used as crude membranes of stably transfected HEK293 cells; also called hGLP1R; hGLP-1R

human GIP receptor = biological target: T1, human GIP receptor; assay: SPA, [125I]-GIP displacement, hGIPR membranes
human glucagon receptor = biological target: T3, human glucagon receptor (human, UniProt P47871 26-477); assay: SPA, [125I]-Gcg displacement, hGcgR membranes
T3 construct: whole, on cells; Used as crude membranes of stably transfected HEK293 cells; also called hGcgR; hGLcgR
T3 sequence (P47871 26-477): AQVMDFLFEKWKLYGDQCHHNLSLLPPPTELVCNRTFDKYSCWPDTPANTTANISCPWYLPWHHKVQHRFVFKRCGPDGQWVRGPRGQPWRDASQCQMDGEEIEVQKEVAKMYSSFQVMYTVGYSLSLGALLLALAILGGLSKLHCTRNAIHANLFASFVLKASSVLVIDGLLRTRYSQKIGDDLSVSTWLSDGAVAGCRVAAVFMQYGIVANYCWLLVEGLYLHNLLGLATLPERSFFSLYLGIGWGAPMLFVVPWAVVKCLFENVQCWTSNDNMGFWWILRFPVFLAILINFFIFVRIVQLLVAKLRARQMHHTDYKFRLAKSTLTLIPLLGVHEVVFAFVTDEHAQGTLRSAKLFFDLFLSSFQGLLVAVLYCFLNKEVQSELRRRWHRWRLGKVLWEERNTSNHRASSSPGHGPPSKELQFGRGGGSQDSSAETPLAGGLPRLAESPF

Row | Binder | Ki (human GLP-1 receptor) | Ki (human GIP receptor) | Ki (human glucagon receptor)
1 | Y[Aib]EGTFTSDYK([AEEA-AEEA-γGlu-C20 diacid])ILLDKIAQ[Aib]AFIEYLIEGGPSSGAPPPS-NH2 (N-terminus assumed; SMILES CC[C@H](C)[C@H](NC(=O)[C@H](CCCCN)NC(=O)[C@H](CC(=O)O)NC(=O)[C@H](CC(C)C)NC(=O)[C@H](CC(C)C)NC(=O)[C@@H](NC(=O)[C@H](CCCCNC(=O)COCCOCCNC(=O)COCCOCCNC(=O)CC[C@H](NC(=O)CCCCCCCCCCCCCCCCCCC(=O)O)C(=O)O)NC(=O)[C@H](Cc1ccc(O)cc1)NC(=O)[C@H](CC(=O)O)NC(=O)[C@H](CO)NC(=O)[C@@H](NC(=O)[C@H](Cc1ccccc1)NC(=O)[C@@H](NC(=O)CNC(=O)[C@H](CCC(=O)O)NC(=O)C(C)(C)NC(=O)[C@@H](N)Cc1ccc(O)cc1)[C@@H](C)O)[C@@H](C)O)[C@@H](C)CC)C(=O)N[C@@H](C)C(=O)N[C@@H](CCC(N)=O)C(=O)NC(C)(C)C(=O)N[C@@H](C)C(=O)N[C@@H](Cc1ccccc1)C(=O)N[C@H](C(=O)N[C@@H](CCC(=O)O)C(=O)N[C@@H](Cc1ccc(O)cc1)C(=O)N[C@@H](CC(C)C)C(=O)N[C@H](C(=O)N[C@@H](CCC(=O)O)C(=O)NCC(=O)NCC(=O)N1CCC[C@H]1C(=O)N[C@@H](CO)C(=O)N[C@@H](CO)C(=O)NCC(=O)N[C@@H](C)C(=O)N1CCC[C@H]1C(=O)N1CCC[C@H]1C(=O)N1CCC[C@H]1C(=O)N[C@@H](CO)C(N)=O)[C@@H](C)CC)[C@@H](C)CC) [Example 24] | 5.04 nM | 0.232 nM | 49.8 nM
2 | Y[Aib]EGTFTSDYSK([AEEA-AEEA-γGlu-C20 diacid])LLDKIAQ[Aib]AFIEYLIEGGPSSGAPPPS-NH2 (N-terminus assumed; SMILES CC[C@H](C)[C@H](NC(=O)[C@H](CCCCN)NC(=O)[C@H](CC(=O)O)NC(=O)[C@H](CC(C)C)NC(=O)[C@H](CC(C)C)NC(=O)[C@H](CCCCNC(=O)COCCOCCNC(=O)COCCOCCNC(=O)CC[C@H](NC(=O)CCCCCCCCCCCCCCCCCCC(=O)O)C(=O)O)NC(=O)[C@H](CO)NC(=O)[C@H](Cc1ccc(O)cc1)NC(=O)[C@H](CC(=O)O)NC(=O)[C@H](CO)NC(=O)[C@@H](NC(=O)[C@H](Cc1ccccc1)NC(=O)[C@@H](NC(=O)CNC(=O)[C@H](CCC(=O)O)NC(=O)C(C)(C)NC(=O)[C@@H](N)Cc1ccc(O)cc1)[C@@H](C)O)[C@@H](C)O)C(=O)N[C@@H](C)C(=O)N[C@@H](CCC(N)=O)C(=O)NC(C)(C)C(=O)N[C@@H](C)C(=O)N[C@@H](Cc1ccccc1)C(=O)N[C@H](C(=O)N[C@@H](CCC(=O)O)C(=O)N[C@@H](Cc1ccc(O)cc1)C(=O)N[C@@H](CC(C)C)C(=O)N[C@H](C(=O)N[C@@H](CCC(=O)O)C(=O)NCC(=O)NCC(=O)N1CCC[C@H]1C(=O)N[C@@H](CO)C(=O)N[C@@H](CO)C(=O)NCC(=O)N[C@@H](C)C(=O)N1CCC[C@H]1C(=O)N1CCC[C@H]1C(=O)N1CCC[C@H]1C(=O)N[C@@H](CO)C(N)=O)[C@@H](C)CC)[C@@H](C)CC) [Example 25] | 4.8 nM | 0.179 nM | 81.1 nM
3 | Y[Aib]EGTFTSDYSILK([AEEA-AEEA-γGlu-C20 diacid])DKIAQ[Aib]AFIEYLIEGGPSSGAPPPS-NH2 (N-terminus assumed; SMILES CC[C@H](C)[C@H](NC(=O)[C@H](CCCCN)NC(=O)[C@H](CC(=O)O)NC(=O)[C@H](CCCCNC(=O)COCCOCCNC(=O)COCCOCCNC(=O)CC[C@H](NC(=O)CCCCCCCCCCCCCCCCCCC(=O)O)C(=O)O)NC(=O)[C@H](CC(C)C)NC(=O)[C@@H](NC(=O)[C@H](CO)NC(=O)[C@H](Cc1ccc(O)cc1)NC(=O)[C@H](CC(=O)O)NC(=O)[C@H](CO)NC(=O)[C@@H](NC(=O)[C@H](Cc1ccccc1)NC(=O)[C@@H](NC(=O)CNC(=O)[C@H](CCC(=O)O)NC(=O)C(C)(C)NC(=O)[C@@H](N)Cc1ccc(O)cc1)[C@@H](C)O)[C@@H](C)O)[C@@H](C)CC)C(=O)N[C@@H](C)C(=O)N[C@@H](CCC(N)=O)C(=O)NC(C)(C)C(=O)N[C@@H](C)C(=O)N[C@@H](Cc1ccccc1)C(=O)N[C@H](C(=O)N[C@@H](CCC(=O)O)C(=O)N[C@@H](Cc1ccc(O)cc1)C(=O)N[C@@H](CC(C)C)C(=O)N[C@H](C(=O)N[C@@H](CCC(=O)O)C(=O)NCC(=O)NCC(=O)N1CCC[C@H]1C(=O)N[C@@H](CO)C(=O)N[C@@H](CO)C(=O)NCC(=O)N[C@@H](C)C(=O)N1CCC[C@H]1C(=O)N1CCC[C@H]1C(=O)N1CCC[C@H]1C(=O)N[C@@H](CO)C(N)=O)[C@@H](C)CC)[C@@H](C)CC) [Example 27] | 3.68 nM | 0.103 nM | 315 nM
4 | Y[Aib]EGTFTSDYSILLDKIK([AEEA-AEEA-γGlu-C20 diacid])Q[Aib]AFIEYLIEGGPSSGAPPPS-NH2 (N-terminus assumed; SMILES CC[C@H](C)[C@H](NC(=O)[C@H](CC(C)C)NC(=O)[C@H](Cc1ccc(O)cc1)NC(=O)[C@H](CCC(=O)O)NC(=O)[C@@H](NC(=O)[C@H](Cc1ccccc1)NC(=O)[C@H](C)NC(=O)C(C)(C)NC(=O)[C@H](CCC(N)=O)NC(=O)[C@H](CCCCNC(=O)COCCOCCNC(=O)COCCOCCNC(=O)CC[C@H](NC(=O)CCCCCCCCCCCCCCCCCCC(=O)O)C(=O)O)NC(=O)[C@@H](NC(=O)[C@H](CCCCN)NC(=O)[C@H](CC(=O)O)NC(=O)[C@H](CC(C)C)NC(=O)[C@H](CC(C)C)NC(=O)[C@@H](NC(=O)[C@H](CO)NC(=O)[C@H](Cc1ccc(O)cc1)NC(=O)[C@H](CC(=O)O)NC(=O)[C@H](CO)NC(=O)[C@@H](NC(=O)[C@H](Cc1ccccc1)NC(=O)[C@@H](NC(=O)CNC(=O)[C@H](CCC(=O)O)NC(=O)C(C)(C)NC(=O)[C@@H](N)Cc1ccc(O)cc1)[C@@H](C)O)[C@@H](C)O)[C@@H](C)CC)[C@@H](C)CC)[C@@H](C)CC)C(=O)N[C@@H](CCC(=O)O)C(=O)NCC(=O)NCC(=O)N1CCC[C@H]1C(=O)N[C@@H](CO)C(=O)N[C@@H](CO)C(=O)NCC(=O)N[C@@H](C)C(=O)N1CCC[C@H]1C(=O)N1CCC[C@H]1C(=O)N1CCC[C@H]1C(=O)N[C@@H](CO)C(N)=O) [Example 30] | 6.2 nM | 0.151 nM | 123 nM
5 | Y[Aib]EGTFTSDYSILLDKIAK([AEEA-AEEA-γGlu-C20 diacid])[Aib]AFIEYLIEGGPSSGAPPPS-NH2 (N-terminus assumed; SMILES CC[C@H](C)[C@H](NC(=O)[C@H](CCCCN)NC(=O)[C@H](CC(=O)O)NC(=O)[C@H](CC(C)C)NC(=O)[C@H](CC(C)C)NC(=O)[C@@H](NC(=O)[C@H](CO)NC(=O)[C@H](Cc1ccc(O)cc1)NC(=O)[C@H](CC(=O)O)NC(=O)[C@H](CO)NC(=O)[C@@H](NC(=O)[C@H](Cc1ccccc1)NC(=O)[C@@H](NC(=O)CNC(=O)[C@H](CCC(=O)O)NC(=O)C(C)(C)NC(=O)[C@@H](N)Cc1ccc(O)cc1)[C@@H](C)O)[C@@H](C)O)[C@@H](C)CC)C(=O)N[C@@H](C)C(=O)N[C@@H](CCCCNC(=O)COCCOCCNC(=O)COCCOCCNC(=O)CC[C@H](NC(=O)CCCCCCCCCCCCCCCCCCC(=O)O)C(=O)O)C(=O)NC(C)(C)C(=O)N[C@@H](C)C(=O)N[C@@H](Cc1ccccc1)C(=O)N[C@H](C(=O)N[C@@H](CCC(=O)O)C(=O)N[C@@H](Cc1ccc(O)cc1)C(=O)N[C@@H](CC(C)C)C(=O)N[C@H](C(=O)N[C@@H](CCC(=O)O)C(=O)NCC(=O)NCC(=O)N1CCC[C@H]1C(=O)N[C@@H](CO)C(=O)N[C@@H](CO)C(=O)NCC(=O)N[C@@H](C)C(=O)N1CCC[C@H]1C(=O)N1CCC[C@H]1C(=O)N1CCC[C@H]1C(=O)N[C@@H](CO)C(N)=O)[C@@H](C)CC)[C@@H](C)CC) [Example 31] | 6.58 nM | 0.0275 nM | 290 nM
6 | Y[Aib]EGTFTSDYSILLDKIAQ[Aib]K([AEEA-AEEA-γGlu-C20 diacid])FIEYLIEGGPSSGAPPPS-NH2 (N-terminus assumed; SMILES CC[C@H](C)[C@H](NC(=O)[C@H](CCCCN)NC(=O)[C@H](CC(=O)O)NC(=O)[C@H](CC(C)C)NC(=O)[C@H](CC(C)C)NC(=O)[C@@H](NC(=O)[C@H](CO)NC(=O)[C@H](Cc1ccc(O)cc1)NC(=O)[C@H](CC(=O)O)NC(=O)[C@H](CO)NC(=O)[C@@H](NC(=O)[C@H](Cc1ccccc1)NC(=O)[C@@H](NC(=O)CNC(=O)[C@H](CCC(=O)O)NC(=O)C(C)(C)NC(=O)[C@@H](N)Cc1ccc(O)cc1)[C@@H](C)O)[C@@H](C)O)[C@@H](C)CC)C(=O)N[C@@H](C)C(=O)N[C@@H](CCC(N)=O)C(=O)NC(C)(C)C(=O)N[C@@H](CCCCNC(=O)COCCOCCNC(=O)COCCOCCNC(=O)CC[C@H](NC(=O)CCCCCCCCCCCCCCCCCCC(=O)O)C(=O)O)C(=O)N[C@@H](Cc1ccccc1)C(=O)N[C@H](C(=O)N[C@@H](CCC(=O)O)C(=O)N[C@@H](Cc1ccc(O)cc1)C(=O)N[C@@H](CC(C)C)C(=O)N[C@H](C(=O)N[C@@H](CCC(=O)O)C(=O)NCC(=O)NCC(=O)N1CCC[C@H]1C(=O)N[C@@H](CO)C(=O)N[C@@H](CO)C(=O)NCC(=O)N[C@@H](C)C(=O)N1CCC[C@H]1C(=O)N1CCC[C@H]1C(=O)N1CCC[C@H]1C(=O)N[C@@H](CO)C(N)=O)[C@@H](C)CC)[C@@H](C)CC) [Example 32] | 3.96 nM | 0.0205 nM | 44.7 nM
